{"source": "patent CN110003338A", "about": "(BEIJING MIANYI FANGZHOU MEDICINE TECH CO LTD, dated 2019)", "molecular_target": "T1, 人OX40 (expressed on cells: transfected 293T cells; HEK::OX40 100B5 cells) (human, UniProt P43489 29-277)", "T1 construct": "whole, on cells; also called hOX40", "T1 sequence (looked up)": "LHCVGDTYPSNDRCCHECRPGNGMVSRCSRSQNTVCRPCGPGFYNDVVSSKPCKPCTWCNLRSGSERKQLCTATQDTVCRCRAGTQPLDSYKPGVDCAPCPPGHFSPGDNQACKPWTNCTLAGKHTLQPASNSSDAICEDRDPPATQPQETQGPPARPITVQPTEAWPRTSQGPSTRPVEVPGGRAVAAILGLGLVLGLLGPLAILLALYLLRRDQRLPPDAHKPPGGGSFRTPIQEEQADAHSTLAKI", "test": "Flow cytometry on 293T cells expressing human OX40, antibody 1 µg/mL final, APC anti-mouse IgG Fc", "data": [{"binder": "抗OX40单克隆抗体6A6 (antibody, V domains shown, Mouse hybridoma monoclonal antibody) VH: EVQLQQSGPELVKPGASVKISCKASGYSFTGYYMNWVKQSPEKSLEWIGEINPSTGGTTYNQKFKAKATLTVDKSSSTAYMQLKSLTSEDSAVYYCARSGLPYYDVDYWGQGTTLTVSS VL: DIQMTQSPSSLSASLGERVSLTCRASQEISGYLSWLHQKPDGTIKRLIYAASTLDSGVPKRFSGSRSGSDYSLTISSLESEDFADYYCLQYASYPLTFGAGTNLELK", "values": [{"measurement": "binding result", "value": "binds"}]}, {"binder": "抗OX40单克隆抗体4F2 (antibody, V domains shown, Mouse hybridoma monoclonal antibody (Balb/c x SP2/0); Constant regions are mouse; it was detected with anti-mouse IgG Fc and mIgG1 served as isotype control) VH: DVQLQESGPGLVKPSQSLSLTCSVTGYSITSGYNWNWIRQFPGNKLEWMGYISYDGSNNYNPSLKNRISITRDTSKNQFFLKLNSVTTEDTATYYCARQGSSGHFYYAMDYWGQGTSVTVSS VL: DIVMTQAHKFMSTSVGDRVSITCKASQDVSSAVAWYQQKPGQSPKLLIYWASIRHTGVPDRFTGSGSGTDYTLTISSVQAEDLALYYCQQHYSTPWTFGGGTKLEIK", "values": [{"measurement": "binding result", "value": "binds"}]}]}
